Test results reported in the supplement of paper PMC10567573.

B1: FEM1A (parent)
chain: NIVEYLIQEQPGQEQVAGGEAQPG
B2: COX4I1 (parent)
chain: VAHVKHLSASQKALKEKEKASWSS

Variants of: B1
Experiment: protein stability index of a GFP-peptide fusion (GPS, HEK-293T) (PSI 1-6); higher = more stable
Conditions: c terminus: a fixed tail appended
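Note: lentivirally expressed fusions sorted by FACS into six bins by GFP to DsRed ratio, PSI derived from sequencing read proportions per bin multiplied by bin number.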

Variant	protein stability index
NIVEYLIQEDPGQEQVAGGEAQPG [Q10D]	4.37
NIVEYLIQEAPGQEQVAGGEAQPG [Q10A]	4.34
NIVEYLIQETPGQEQVAGGEAQPG [Q10T]	3.69
NIVEYLIQEQPTQEQVAGGEAQPG [G12T]	3.87
NIVEYLIQEQPGQECVAGGEAQPG [Q15C]	4.19
NIVEYLIQEQPGQEQVAGGEAQVG [P23V]	4.09
NIVEYLIQEQPGQEQVVGGEAQPG [A17V]	3.68
NIVEYLIQEQPGQEQVAGGDAQPG [E20D]	4.59
NIVEYLIQEQPGQEQVAGGQAQPG [E20Q]	3.9
NIVEYLIQEQPGQEQVAGGIAQPG [E20I]	3.53
NIVEYLIQEQPGQEQVAGGEAQPS [G24S]	3.86
NIVEYLIQEQPGQEQCAGGEAQPG [V16C]	4.02
NIVEYLIQEQPGQEQEAGGEAQPG [V16E]	4.35
NIVEYLIQEQPGQEQTAGGEAQPG [V16T]	4.42
NIVEYLNQEQPGQEQVAGGEAQPG [I7N]	5.3
NIVEYLHQEQPGQEQVAGGEAQPG [I7H]	4.74
NIVEYLIQEQPGAEQVAGGEAQPG [Q13A]	4.02
NIVEYLIQEQPGGEQVAGGEAQPG [Q13G]	4.18
NIKEYLIQEQPGQEQVAGGEAQPG [V3K]	5.05
NIGEYLIQEQPGQEQVAGGEAQPG [V3G]	5.37
NINEYLIQEQPGQEQVAGGEAQPG [V3N]	5.01
NIFEYLIQEQPGQEQVAGGEAQPG [V3F]	4.21
NIVEYLIQEQPGQEQVAGGECQPG [A21C]	4.09
NLVEYLIQEQPGQEQVAGGEAQPG [I2L]	4.29
NNVEYLIQEQPGQEQVAGGEAQPG [I2N]	5.41
NQVEYLIQEQPGQEQVAGGEAQPG [I2Q]	5.6
NHVEYLIQEQPGQEQVAGGEAQPG [I2H]	5.49

Variant	protein stability index
NEVEYLIQEQPGQEQVAGGEAQPG [I2E]	5.63
NIVEYLIQEQPGQEQVAPGEAQPG [G18P]	4.3
NIVEYLIQEQPGQEQVAIGEAQPG [G18I]	3.85
NIVEYLIQEQPGQEQVAKGEAQPG [G18K]	3.75
NIVEYVIQEQPGQEQVAGGEAQPG [L6V]	5.11
NIVEYWIQEQPGQEQVAGGEAQPG [L6W]	4.44
NIVEWLIQEQPGQEQVAGGEAQPG [Y5W]	2.18
NIVELLIQEQPGQEQVAGGEAQPG [Y5L]	4.03
NIVEYLIQEQPGQEQVAGLEAQPG [G19L]	3.6
NIVEYLIQEQPGQEQVAGWEAQPG [G19W]	2.99
NIVEYLIQEQPGQEQVAGCEAQPG [G19C]	4.06
NIVEYLIQEQKGQEQVAGGEAQPG [P11K]	3.74
NIVEYLIQEQAGQEQVAGGEAQPG [P11A]	3.98
NIVEYLIQEQQGQEQVAGGEAQPG [P11Q]	3.69
NIVEYLIQVQPGQEQVAGGEAQPG [E9V]	2.06
NIVEYLIQGQPGQEQVAGGEAQPG [E9G]	3.71
NIVEYLIQEQPGQEQVAGGEAFPG [Q22F]	3.24
NIVEYLIQEQPGQEQVAGGEAIPG [Q22I]	3.66
NIVEYLIQEQPGQEQVAGGEALPG [Q22L]	4.16
NIVGYLIQEQPGQEQVAGGEAQPG [E4G]	4.16
NIVAYLIQEQPGQEQVAGGEAQPG [E4A]	3.48
NIVWYLIQEQPGQEQVAGGEAQPG [E4W]	2.52
NIVSYLIQEQPGQEQVAGGEAQPG [E4S]	3.64
NIVEYLIIEQPGQEQVAGGEAQPG [Q8I]	3.18
NIVEYLIVEQPGQEQVAGGEAQPG [Q8V]	3.34
NIVEYLIYEQPGQEQVAGGEAQPG [Q8Y]	3.36

Variants of: B2
Experiment: as above
Conditions: c terminus: a fixed tail appended

Variant	protein stability index
VAHVKHLSASQKALKEKEKADWSS [S21D]	4.18
VAHVKHLSASQKALKEKEKACWSS [S21C]	3.74
VAHVKHLSASQKALKEKEKAAWSS [S21A]	3.98
VAHVKHLSASQKALKEKEKAKWSS [S21K]	3.47
VAHVKHLSASQKALKEKEKAIWSS [S21I]	3.68
VAHVKHLSASQKALKEKEKAWWSS [S21W]	3.24
VAHVKHLSASQKALKEKEKAHWSS [S21H]	3.46
VAHVKHLSASQKALKEKEKAGWSS [S21G]	3.6
VAHVKHLSASQKALKEKEKAVWSS [S21V]	3.96
VAHVKHLSASQKALKEKEKATWSS [S21T]	3.32
VAHVKHLSASQKALKEKEKAQWSS [S21Q]	4.07
VAHVKHLSASQKALKEKEKALWSS [S21L]	3.16
VAHVKHLSASQKALKEKEKAMWSS [S21M]	3.39
VAHVKHLSASQKALKEKEKAYWSS [S21Y]	3.32
VAHVKHLSASQKALKEKEKARWSS [S21R]	3.49
VAHVKHLSASQKALKEKEKAFWSS [S21F]	3.72
VAHVKHLSASQKALKEKEKANWSS [S21N]	3.75
VAHVKHLSASQKALKEKEKAEWSS [S21E]	4.42
VAHVKHLSASQKALKEKEKAPWSS [S21P]	3.73
VAHVKHLSASQKALKEKEVASWSS [K19V]	3.03
VAHVKHLSASQKALKEKEDASWSS [K19D]	3.85
VAHVKHLSASQKALKEKECASWSS [K19C]	2.79
VAHVKHLSASQKALKEKEMASWSS [K19M]	2.7

Variant	protein stability index
VAHVKHLSASQKALKEKEIASWSS [K19I]	3.21
VAHVKHLSASQKALKEKEHASWSS [K19H]	2.89
VAHVKHLSASQKALKEKEQASWSS [K19Q]	3.02
VAHVKHLSASQKALKEKESASWSS [K19S]	3.52
VAHVKHLSASQKALKEKERASWSS [K19R]	3.71
VAHVKHLSASQKALKEKEPASWSS [K19P]	3.63
VAHVKHLSASQKALKEKEYASWSS [K19Y]	2.28
VAHVKHLSASQKALKEKELASWSS [K19L]	2.48
VAHVKHLSASQKALKEKEAASWSS [K19A]	3.86
VAHVKHLSASQKALKEKEEASWSS [K19E]	4.5
VAHVKHLSASQKALKEKENASWSS [K19N]	3.4
VAHVKHLSASQKALKEKEWASWSS [K19W]	3.46
VAHVKHLSASQKALKEKEGASWSS [K19G]	3.52
VAHVKHLSASQKALKEKEFASWSS [K19F]	2.64
VAHVKHLSASQKALKEKETASWSS [K19T]	3.17
VAHVKHLSASQKALKEKEKASWSI [S24I]	3.56
VAHVKHLSASQKALKEKEKASWSF [S24F]	3.33
VAHVKHLSASQKALKEKEKASWSL [S24L]	3.41
VAHVKHLSASQKALKEKEKASWSY [S24Y]	3.13
VAHVKHLSASQKALKEKEKASWSQ [S24Q]	3.94
VAHVKHLSASQKALKEKEKASWSW [S24W]	2.95
VAHVKHLSASQKALKEKEKASWST [S24T]	3.57
VAHVKHLSASQKALKEKEKASWSN [S24N]	3.76

Variant	protein stability index
VAHVKHLSASQKALKEKEKASWSP [S24P]	4.36
VAHVKHLSASQKALKEKEKASWSR [S24R]	3.38
VAHVKHLSASQKALKEKEKASWSG [S24G]	3.62
VAHVKHLSASQKALKEKEKASWSM [S24M]	3.17
VAHVKHLSASQKALKEKEKASWSV [S24V]	3.15
VAHVKHLSASQKALKEKEKASWSH [S24H]	3.45
VAHVKHLSASQKALKEKEKASWSK [S24K]	4.25
VAHVKHLSASQKALKEKEKASWSA [S24A]	3.41
VAHVKHLSASQKALKEKEKASWSC [S24C]	3.31
VAHVKHLSASQKALKEKEKASWSD [S24D]	2.98
VAHVKHLSASQKALKEKEKASWSE [S24E]	2.81
VAHVKHLSASQKALKEKWKASWSS [E18W]	2.69
VAHVKHLSASQKALKEKAKASWSS [E18A]	2.92
VAHVKHLSASQKALKEKVKASWSS [E18V]	2.59
VAHVKHLSASQKALKEKDKASWSS [E18D]	3.15
VAHVKHLSASQKALKEKSKASWSS [E18S]	3.02
VAHVKHLSASQKALKEKKKASWSS [E18K]	2.92
VAHVKHLSASQKALKEKGKASWSS [E18G]	3.13
VAHVKHLSASQKALKEKYKASWSS [E18Y]	2.67
VAHVKHLSASQKALKEKIKASWSS [E18I]	3.15
VAHVKHLSASQKALKEKNKASWSS [E18N]	2.98
VAHVKHLSASQKALKEKLKASWSS [E18L]	2.69
VAHVKHLSASQKALKEKTKASWSS [E18T]	2.87

Variant	protein stability index
VAHVKHLSASQKALKEKFKASWSS [E18F]	2.51
VAHVKHLSASQKALKEKCKASWSS [E18C]	3.38
VAHVKHLSASQKALKEKRKASWSS [E18R]	2.77
VAHVKHLSASQKALKEKPKASWSS [E18P]	2.52
VAHVKHLSASQKALKEKMKASWSS [E18M]	2.13
VAHVKHLSASQKALKEKHKASWSS [E18H]	3.64
VAHVKHLSASQKALKEKQKASWSS [E18Q]	4.05
VAHVKHLSASQKALKEKEKASMSS [W22M]	4.88
VAHVKHLSASQKALKEKEKASNSS [W22N]	5.21
VAHVKHLSASQKALKEKEKASHSS [W22H]	4.48
VAHVKHLSASQKALKEKEKASPSS [W22P]	5.12
VAHVKHLSASQKALKEKEKASTSS [W22T]	4.96
VAHVKHLSASQKALKEKEKASISS [W22I]	4.38
VAHVKHLSASQKALKEKEKASLSS [W22L]	4.74
VAHVKHLSASQKALKEKEKASASS [W22A]	5.14
VAHVKHLSASQKALKEKEKASRSS [W22R]	4.58
VAHVKHLSASQKALKEKEKASQSS [W22Q]	4.79
VAHVKHLSASQKALKEKEKASFSS [W22F]	4.6
VAHVKHLSASQKALKEKEKASVSS [W22V]	4.98
VAHVKHLSASQKALKEKEKASDSS [W22D]	4.85
VAHVKHLSASQKALKEKEKASESS [W22E]	5.33
VAHVKHLSASQKALKEKEKASCSS [W22C]	4.97
VAHVKHLSASQKALKEKEKASSSS [W22S]	5.08

Variant	protein stability index
VAHVKHLSASQKALKEKEKASKSS [W22K]	4.78
VAHVKHLSASQKALKEKEKASYSS [W22Y]	4.29
VAHVKHLSASQKALKEKEKASGSS [W22G]	5.03
VAHVKHLSASQKALKEWEKASWSS [K17W]	2.35
VAHVKHLSASQKALKEYEKASWSS [K17Y]	3.06
VAHVKHLSASQKALKEKEKSSWSS [A20S]	3.16
VAHVKHLSASQKALKEKEKPSWSS [A20P]	3.36
VAHVKHLSASQKALKEKEKLSWSS [A20L]	2.86
VAHVKHLSASQKALKEKEKDSWSS [A20D]	3.27
VAHVKHLSASQKALKEKEKRSWSS [A20R]	3.65
VAHVKHLSASQKALKEKEKCSWSS [A20C]	3.28
VAHVKHLSASQKALKEKEKNSWSS [A20N]	3.05
VAHVKHLSASQKALKEKEKWSWSS [A20W]	2
VAHVKHLSASQKALKEKEKMSWSS [A20M]	2.39
VAHVKHLSASQKALKEKEKGSWSS [A20G]	3.25
VAHVKHLSASQKALKEKEKHSWSS [A20H]	3.23
VAHVKHLSASQKALKEKEKYSWSS [A20Y]	2.29
VAHVKHLSASQKALKEKEKVSWSS [A20V]	3.21
VAHVKHLSASQKALKEKEKESWSS [A20E]	1.71
VAHVKHLSASQKALKEKEKKSWSS [A20K]	3.48
VAHVKHLSASQKALKEKEKTSWSS [A20T]	3.25
VAHVKHLSASQKALKEKEKQSWSS [A20Q]	2.57
VAHVKHLSASQKALKEKEKFSWSS [A20F]	3.13

Variant	protein stability index
VAHVKHLSASQKALKEKEKISWSS [A20I]	2.76
VAHVKHLSASQKALKEKEKASWYS [S23Y]	3.41
VAHVKHLSASQKALKEKEKASWTS [S23T]	2.91
VAHVKHLSASQKALKEKEKASWVS [S23V]	2.61
VAHVKHLSASQKALKEKEKASWHS [S23H]	3.68
VAHVKHLSASQKALKEKEKASWIS [S23I]	2.91
VAHVKHLSASQKALKEKEKASWRS [S23R]	3.22
VAHVKHLSASQKALKEKEKASWCS [S23C]	2.22
VAHVKHLSASQKALKEKEKASWLS [S23L]	3.1
VAHVKHLSASQKALKEKEKASWDS [S23D]	4.4
VAHVKHLSASQKALKEKEKASWNS [S23N]	4
VAHVKHLSASQKALKEKEKASWKS [S23K]	3.74
VAHVKHLSASQKALKEKEKASWWS [S23W]	2.81
VAHVKHLSASQKALKEKEKASWAS [S23A]	1.82
VAHVKHLSASQKALKEKEKASWPS [S23P]	4.06
VAHVKHLSASQKALKEKEKASWGS [S23G]	4.07
VAHVKHLSASQKALKEKEKASWQS [S23Q]	2.81
VAHVKHLSASQKALKEKEKASWFS [S23F]	3.65
VAHVKHLSASQKALKEKEKASWES [S23E]	3.26
VAHVKHLSASQKALKEKEKASWMS [S23M]	3.77
